A short description of the data set: soluble on expression in E. coli; label from the status in PepcDB or PDB records.
With “MSFRIGRRCFSKQSYDAIIIGGGHNGLTAAAYLTKAGKKVCVLERRHVVGGAAVTEEIVPGFRFSRASYLLSLLRPVVMQELNLKKFGLRYHIRNPNSFTPIRNTHESLLLGMDMAENQKEIAKFSQRDAGNYPKYEHFISEIVHSFEQLMDYEPLDLQKPIHKLLPHLYLLFKTVQPLGLRNAVDFYELMTAPISKIMNKWFESDVLKATLGTDGVIGLAASPMDPGTGYVLLHHVIGGLDEHKGAWGYVYGGMGAVSNAIAECAKSHGAEIYTEQDVQEVLLDGNVAKGVRLSNGKELHSKIVMSNATPHVTFNHLVKKESLPEEFHRNINQIDYTSPVTKINVAVKELPNFLAKPNQGSEPMPHHQTTIHMNCENMQVVHDAVMDYKNGRYSRRPVIEMTIPSSVDRTIVDSADGHVVLLFTQYTPFSPKDGEWTEEKKTEYAKHVFSEIDAYAPNFSSSVIGYDILTPPDIQNTFGITGGNIFHGSMSLDQLYVSRPISKWSNYSTPIESLYLCGSGAHPGGGVTGAPGRLSALHALKHF”, the “soluble on expression in E. coli” value is recorded as “not soluble”. The entry for “MSFSDHFSAVAASYAKARPRYPQRWFRYLARIVPDRQRVWDCATGNGQAAIALAEYFSEVIGSDASAAQVRQARSHPRVQYLVFPAEATPLAPASLDLITVAQAAHWFDLPQFYIEAQRLLRPGGVIALWGYGLGSLNPAIDHVFNHFYRDWLDPYWPPERQWVEQAYEGLSFPFEPLPTPTFSMQCDWTLFDLLAYLRTWSGVQQFQRQRGFDPVWAIAPELQRVWGDPQRYRRITWPLFAKVGRWQPLEHHHHHH” is “soluble”; for “MSFVAYEELIKEGDTAILSLGHGAMVAVRVQRGAQTQTRHGVLRHSVDLIGRPFGSKVTCGRGGWVYVLHPTPELWTLNLPHRTQILYSTDIALITMMLELRPGSVVCESGTGSGSVSHAIIRTIAPTGHLHTVEFHQQRAEKAREEFQEHRVGRWVTVRTQDVCRSGFGVSHVADAVFLDIPSPWEAVGHAWDALKVEGGRFCSFSPCIEQVQRTCQALAARGFSELSTLEVLPQVYNVRTVSLPPPDLGTGTDGPAGSDTSPFRSGTPMKEAVGHTGYLTFATKTPG” it is “soluble”.

“MSGDYRITLEELRYISVFHSITGVTAYRCIVDEENNRLIFLVSEGEAGRAIGRGGRLIKLLREALGKNIEVVEYSSDLERIVKNLFPGVKIESINVRERNGVKQVVIKVSEDDKGAAIGKGGKNVKRARLVLSKLFGVEKVVIR”: the “soluble on expression in E. coli” value is “soluble”. For “MSGIKSLELLLQSMSPELMAGDYVFCTVNGALSDYLSLEPIATFREPEGLTLVLEAEKAQQAGLESSALFSLITLTVHSSLEAVGLTAAFATKLAEHGISANVIAGYYHDHIFVQKEKAQQALQALGEFAQA”, the “soluble on expression in E. coli” value was “soluble”. Take “MSGWNVNASSFVPNANARPFVPGQPYTPQPEQAAPEPTEDWEAQADTSPAAVQPEVAEPVAVQESAPVAPVSATEAPKKEPTPEEDLVAPLAKKFQRTVYVDDGTHKEHINMVFVGHVDAGKSTIGGQLMFLTGMVDKRTLEKYEREAKEKGRESWYLSWCMDTNDEEREKGKTVEVGRAYFETEKRHFTILDAPGHKSFVPNMIVGANQADLAVLVISARRGEFETGFDRGGQTREHSMLVKTAGVKHLVILVNKMDDPTVKWEEERFKEIEGKLTPFLRKLGFNPKTDITYVPCSGLTGAFIKDRPTGSEGNWYSGPCFIEFIDVLLPSYKRDFNGPVRCTVAEKYSEMGTVIIGKMESGCVQKGDTLVVMPNKQPVQVLQIWADDVETERVVAGDNIKFKLKGIEENELQGGFIICSPDSLAKTGRVFDAEVLVLEHRSIIASGYSCVLHIQSAVEEVTVKGVIATIDKKTGEKKRAKFVKQDEKCIMRLESPEPFVLEPFKEYPYLGRFTLRDEGKTIAIGKVLKVVE”: the “soluble on expression in E. coli” value was “not soluble”. The entry for “MSGYDRALSIFSPDGHIFQVEYALEAVKRGTCAVGVKGKNCVVLGCERRSTLKLQDTRITPSKVSKIDSHVVLSFSGLNADSRILIEKARVEAQSHRLTLEDPVTVEYLTRYVAGVQQRYTQSGGVRPFGVSTLIAGFDPRDDEPKLYQTEPSGIYSSWSAQTIGRNSKTVREFLEKNYDRKEPPATVEECVKLTVRSLLEVVQTGAKNIEITVVKPDSDIVALSSEEINQYVTQIEQEKQEQQEQDKKKKSNH” is “soluble”. Turning to “MSHDSSGEYMVSQVLKCVKFKDLVRKALNAEAKFSPASVEYDKRRHSKYAYLVHWRGYDWKERTWEPEENLENCEELQKFKERNNMSLDHLTFEHHYEHSTWRRISLASEKCVTNRYLKTDDEIEEKRARKKAKLEEQNRKEQAKNPHASAETEPAVKKKKIEGVGSRIPKISDREGAGTSGQSSSNVSTPGITPLDNKTPRMQKKSNEIGQASTPECAIATLSIGTPQPSIIDSTYDQSDIANGSTSPQPQPVFKRKMNGQDVSDYSVHQGGTFSDGSAIEGSTSRESEDMDCTQETKKALQKAIESAREECEEIEKTIKKYPLQVTSSRVVTGFSPALTLRKFRRCQSLEMLSDHFNNNAEMEIFGKNFENSVRLDADAKPVVIKIYPQEQELFLTKQRKMPSLEMEQLVYENLVKENANNIKIAMHNIRPDKNFAQLLECLSHAYSKDDNIRFETIFNEGFPPSDEYDCRRFQAIVFLIAYCKHRLWKADPKGMAIVEASDAVKEGEIREQQIICSDRHRKCAWLQVFLKLMPDRFKFLETSGQCYHGWEGDDGPFRDDVFFHCMKYGAECQKRLFLDFNKPIGIQEETVGDYSVDAMHLLAVQYGNIQRIPSYLSIGGLDINALATHLPTKRVMRLQHYLKVWIEAHKSETTATEDRKKYYRYLNDVIRLTSESLEIFLENEVTKMIFSRMGGRWKIRMDLTYPHILRCSPLSNKSNGGDGTHQVLSCLFYPEAIGYRDGLENSKGADTEKIDELKTSQKRYKKMIEEGKGRLVLALYRIDIEFRCNLAEKEQFSLPKFTLIESDDGFKIEKLTLLRQTEGLTCYEADIGMFEMTPFSSPGCRYFGISDKAHEKDLVVPGNAHIEMRAEVDQPISFVTQLFFIKKNV”, the “soluble on expression in E. coli” value is “not soluble”. The entry for “MSHLRIPANWKVKRSTPFFTKENVPAALLSHHNTAAGVFGQLCVMEGTVTYYGFANETATEPEVKVVINAGQFATSPPQYWHRVELSDDARFNIHFWVEEDHQGEEMYQQKKA” is “not soluble”.

“MSHPWRSRGEKRTIMFGYTPSDTILKYLKDMRDLINRAILNAYSIARSNDDSLPSPITLRRSLKDYYDNNVAYAKHHINPVCRTAIAMLRSYKKNNGRLKVVKAKRLAMRIDSELAKIEDNRLRITIRPNVYEYVDIVDRNKKYSEYSKYPISEVLLTDNRVYITFITGSDDKPVIANNIIGFDLNFKSVDYTVIKDNRIAYVDSIDTYDIAKTQRDYERKRRKIQKHIRNPAKRIRKLKEAKHRQRNIVRDKLQKLTTNIVKNNEDKTFVFEDLTNIKKKGKKHKDHKRDGQSSKRFRTDINRWPYRLFQMFVEYKSKNETLYVDPEGTSSECPVCGGILEHPIWKMSKCDNCGATFDRDRLSSLSIAVRGLHLCGTPFSVSGSASWDSMKDNYLYRLEHHHHHH”: the “soluble on expression in E. coli” value is “soluble”.

For the sequence “MSHQSPPIAEVDATDDMHEALFAKRGCCFLMPCLASSQPSTRGGSVWWQRITTVDKLEPDERWWIRGWRRMREWSELVAGPRWKTYIRRFGRSNCCGGGGGRVGNSSGGCGGGAMPNRSSDQGKFRYDQLSYSLNFDDGNQTGHFDDEFPYRDYSMRFAAPSLPVSTKCSIDFDSDIDNK”, the “soluble on expression in E. coli” value is reported as “soluble”. As for “MSHRSPSVTPAVSVLIPAWNAVRHLPAALDGLLSQTFQDWEAVVVDDGSQDETPALLAAYAARDARIRPLHVEHGGIVHALNHGLLHVRGRHVARMDADDTCHPERLALQCHALDNAPHLGLVASRVTFGGDAAQCGGFVRYVDWTNSLLCHEDIALGRFRESPLVHPSVMFRRELIDRFGPYANGPFPEDYELWLRWLEAGVRMEKLPEHLLVWNDPPGRLTRTHDNYAEAGFVALRTRYLARWLCAHNPQHPDVWVIGAGKASRRRARPLCEHGIRIRAWVDIDPHKIGNIVEGLPVVGREAMPAPGQGFMLAFLAGHGAAEELELFLHGAGYLPGQDYLLASLEHHHHHH”, the “soluble on expression in E. coli” value was “soluble”. With “MSIESSATPTTPNAEALQLNSTEVRILGCLIEKQATNPETYPLTLNALVIACNQKTSRDPVMNLTQGQVGQSLRALEGRGLTRLVMGSRADRWEHKVDKGLELVPAQVILTGLLLLRGPQTVSELLTRSNRMHDFEDSEQVVHQLERLIARGLATLVPRQSGQREDRYMHLIGDPEDLQDLLAARQQAPERGNAASPAATQRLDELEARIAALEERLARLE”, the “soluble on expression in E. coli” value is listed as “not soluble”.

With “MSIEVGNKLKGKVTGIKKFGAFVELPEGKSGLVHISEVADNYVENVEEHLSVGDEVDVKVLSIADDGKISLSIKKAKDRPRRQHTSKPSHQKPVQKAEDFEKKLSNFLKDSEDKLTSIKRQTESRRGGKGSRR”, the “soluble on expression in E. coli” value is recorded as “not soluble”. As for “MSILVKNNIHWVGQRDWEVRDFHGTEYKTLRGSSYNSYLIREEKNVLIDTVDHKFSREFVQNLRSEIDLADIDYIIINHAEEDHAGALTELMAQIPDTPIYCTANAIDSINGHHHHPEWNFKVVKTGDTLDIGNGKQLIFVETPMLHWPDSMMTYMTGDAVLFSNDAFGQHYCDERLFNDEVDQTELFEQCQRYYANILTPFSRLVTPKITEILGFNLPVDMIATSHGVVWRDNPTQIVELYLKWATDYQEDRITIFYDTMSNNTRMMADAIAQGINEVDPNVAVKIFNVARSDKNEILTNVFRSKGVLVGTSTMNNVMMPKIAGLVEEMTGLRFRNKRASAFGSHGWSGGAVDRLSTRLQDAGFEMSLSLKAKWRPDLDALELCRQHGRDIARQWALAPLPETTQQIAPVEETITCTAADLGPKMQCSVCQWIYDPALGEPLQDVAPGTPWNDVPDNFLCPECSLGKDVFDVLATEAK”, the “soluble on expression in E. coli” value is reported as “not soluble”. Regarding “MSINGISGASPLVALQGPSASQRPEPVSSTDRAQAPAFSERLGSALEGLAKSQTEAAEKASAFERGEGGNLAEVMVSQQVSSLGFQLALNVRNKALGAYRDIMNMPV”, the “soluble on expression in E. coli” value is given as “not soluble”.

“MSINIEQAIIHEISQDSQGQLRCRLRPQPLLNGQAVEMMLEELHQTYTSKSGKGFGYFGIHGDDGEANPAFANALKEYRAGDLGFVEFTGQASKLLQEELAKYDFSQGGFLLMSCYTSMASDYLFVALLSAKSSMTVLDDMELSQNNHLDLNNIQLAARIDLTELQADKDSRKYISFIRGRAGRKVADFFLDFMGCVEGVNTKAQNKTLMNAVEDFVASSDLTKEERQQCRNKVFEYCSERFDEGADIEIKDLADELADQGMESFYDFARGGSYELDEEFPADKSTLRQLKKFSGTGGGVTISFDGGHLGQRVIYDPISDTILIKGVPANLKDQLDRRLKGE”: the “soluble on expression in E. coli” value was “soluble”.

Consider “MSINTSGKITSATERADSADFRTIIRNKIPLMDVRAPVEFGKGAFDLSINYPLMNNDERADVGICYKQNGQEAAIKLGNALVSGQSKARRLTQWQTFARENPQGYLYCFRGGLRSQTVQRWLKESGINYPLITGGYKALRQFLLNELEQLALHPLTILAGNTGSGKTPFLAHCANSLDLEGAAGHRGSSFGSFVTPQSNQINFENKLAEQYIRGDFSLEQRLVLEDEGRLIGSVHLPESLRNAMTLAPLVVIEESLEYRLEQIYQEYIIKMTAQYQAAYGVEQGFTAFSEYLEHGLFKVRKRLGTQRYGQLKEIQSTALTQQNKGQPQYHLDWLKPLLSEYYDPMYQYQLGLKSDRVIFRGNNSECLAFLRD”, for which the “soluble on expression in E. coli” value is reported as “not soluble”. For “MSIPITVKTVADLIIGEKGIICGFTDEETSLKLLEMGCLPGCEIELDRKAPLGDPICINVCGYTLSMRLEEASTILLSLEHHHHHH”, the “soluble on expression in E. coli” value is recorded as “not soluble”.

For the origin of these results see the DeepSol protein solubility set.
